Data set [1] deals with the molecule itself. Description: SEC-MALS; run at 500 mM NaCl after disulphide cross-linking via K78C at 150 mM NaCl. Background: Size exclusion chromatography separates by hydrodynamic size, large species first.
A further data set addresses T1, Rtt109 (UniProt Q07794 1-436).
T1 construct: expressed from a pET28a-derived vector, a gift from Paul Kaufman; also called histone acetyltransferase Rtt109
T1 sequence: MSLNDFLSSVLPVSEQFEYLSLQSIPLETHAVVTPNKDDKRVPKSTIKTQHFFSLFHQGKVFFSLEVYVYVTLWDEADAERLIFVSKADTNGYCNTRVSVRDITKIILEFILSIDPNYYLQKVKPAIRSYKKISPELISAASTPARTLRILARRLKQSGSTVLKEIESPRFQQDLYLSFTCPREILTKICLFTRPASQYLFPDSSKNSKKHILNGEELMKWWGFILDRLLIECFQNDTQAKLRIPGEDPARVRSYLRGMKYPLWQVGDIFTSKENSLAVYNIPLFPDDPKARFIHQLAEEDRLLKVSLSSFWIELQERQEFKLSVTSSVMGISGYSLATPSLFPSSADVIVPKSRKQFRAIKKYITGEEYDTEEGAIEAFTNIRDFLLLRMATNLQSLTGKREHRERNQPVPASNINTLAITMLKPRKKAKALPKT
Description: PELDOR; 100 μM Vps75 Y35RX2 dimer with Rtt109 at ratios 2:0, 2:0.25, 2:0.5 and 2:1 (Vps75:Rtt109). Conditions: both partners purified.

Data set [2] deals with the molecule itself. Described as above.

B1: Vps75 K78C (natural protein, budding yeast, UniProt P53853 1-264, looked up)
chain: MMSDQENENEHAKAFLGLAKAEEEVDAIEREVELYRLNKMKPVYEKRDAYIDEIAEFWKIVLSQHVSFANYIRASDFCYIDTIDKIKVEWLALESEMYDTRDFSITFHFHGIEGDFKEQQVTKVFQIKKGKDDQEDGILTSEPVPIEWPQSYDSINPDLIKDKRSPEGKKKYRQGMKTIFGWFRWTGLKPGKEFPHGDSLASLFSEEIYPFAVKYYAEAQRDLEDEEGESGLSADGDSEDDDGSLGEVDLPLSDEEPSSKKRKV
modifications: disulphide between cysteine 78 of opposing dimers after oxidation with Cu (II) phenanthroline
notes: Vps75 of budding yeast, point mutant in the C21A/C212A construct
As usually defined, the stoichiometry N is a count of units in the complex or per binding partner. For the molecule B1, in data set [1], the “stoichiometry N” value turned out to be 4.

B2: Vps75 Y35RX2 (natural protein, budding yeast, UniProt P53853 1-264, looked up)
chain: MMSDQENENEHAKAFLGLAKAEEEVDAIEREVELCRLNKMKPVYEKRDAYIDEIAEFWKIVLSQHVSFANYIRASDFKYIDTIDKIKVEWLALESEMYDTRDFSITFHFHGIEGDFKEQQVTKVFQIKKGKDDQEDGILTSEPVPIEWPQSYDSINPDLIKDKRSPEGKKKYRQGMKTIFGWFRWTGLKPGKEFPHGDSLASLFSEEIYPFAVKYYAEAQRDLEDEEGESGLSADGDSEDDDGSLGEVDLPLSDEEPSSKKRKV
modifications: 3,4-Bis-MTSL crosslinking spin label (RX2) joining cysteine 35 of the two chains of the dimer; deuterated protein
notes: Vps75 of budding yeast, open reading frame, unique cysteine at position 35; One spin label for each dimer; also called singly labelled Vps75 Y35RX2 dimer; not shown: His6, N-terminal, cleaved
In the case of B2, the binding result (in the data set with Rtt109; in data set [2]) was “binds” in each case.

These data come from publication PMC4027167, “The histone chaperones Vps75 and Nap1 form ring-like, tetrameric structures in solution” (Nucleic Acids Research, 2014).
